In the series the test system is TDG (thymine DNA glycosylase), full length (Homo sapiens). As to the kind of experiment: EMSA. The note with it: EMSA: 5 nM 32P DNA or mononucleosome, TDG 0-1 uM, buffer NB (composition not in material) + 0.2 mM MgCl2, 5% glycerol, 37 C 20 min; 5% native PAGE at 4 C. In general terms: A gel shift assay detects complexes by their altered migration in electrophoresis.

By Kd is commonly meant a measure of binding affinity in units of concentration.

Consider 0-NCP-0 mononucleosome, for which the equilibrium dissociation constant (Kd) worked out at 0.185 µM.
Regarding 0-NCP-30 mononucleosome, the dissociation constant (Kd) was 0.059 µM.
For 30-NCP-30 mononucleosome, the dissociation constant Kd is 0.062 µM.
Take 601 DNA (naked, 147 bp): the Kd was 0.038 µM.

Source of the values: article PMC7969020.
